Measurements: the DeepSol protein solubility set

test: soluble on expression in E. coli; label from the status in PepcDB or PDB records

Sequence	soluble on expression in E. coli
MNTILAQQIANEGGVEAWMIAQQHKSLLRFLTCGSVDDGKSTLIGRLLHDTLQIYEDQLSSLHNDSKRHGTQGEKLDLALLVDGLQAEREQGITIDVAYRYFSTERRKFIIADTPGHEQYTRNMATGASTCDLAILLIDARKGVLDQTRRHSFISTLLGIKHLVVAINKMDLVDYREETFARIREDYLTFAEQLPGDLDIRFVPLSALEGDNVAAQSANMRWYSGPTLLEVLETVDIQRAVDRQPMRFPVQYVNRPNLDFRGYAGTLASGSVKVGERIKVLPSGVESSVARIVTFDGDKEEACAGEAITLVLNDDIDISRGDLLLAANETLAPARHAAIDVVWMAEQPLAPGQSYDVKLAGKKTRARIEAIRYQIDINNLTQRDVESLPLNGIGLVEMTFDEPLALDIYQQNPVTGGLIFIDRLSNVTVGAGMVRELDERGATPPVEYSAFELELNALVRRHFPHWDARDLLGDKHGAA	not soluble
MTQHNDNDDDAALFRAAIGPVRPLRPSEMAITIKPPSRPRRRIIQHHQDEAKSKFAQLLRESAPLEAGDTISYRSKALPSRLFQRLKRGQFSVQDELDLHGATVVQAETLLRQFLLEAHMYEYGCVRIIHGKGLQSNGGTPVLKNLVNQLLRLRKDVLAFHSSPPAQGGTGAVLVLLTHH	soluble
MPRVNIGPDNNAQIEITTLQSQSKSRKLKKIKMASGSERVVVVGVDDSAHSYHALETALDLFFIPFKANPRFKLVVLHARPTATFFLGVAGPGTVDIIPMVEEDLNKTADLVKKKCAEVCSAKSVEISSLEVIEGDPRNIMLEAVERHHA	soluble
MFAIQPGLAEGGQFLGDPPPGLCQPELQPDSNSNFMASAKDANENWHGMPGRVEPILRRSSSESPSDNQAFQAPGSPEEGVRSPPEGAEIPGAEPEKMGGAGTVCSPLEDNGYASSSLSIDSRSSSPEPACGTPRGPGPPDPLLPSVAQAVQHLQVQERYKEQEKEKHHVHLVMYRRLALLQWIRGLQHQLIDQQARLQESFDTILDNRKELIRCLQQRAAPSRPQDQA	soluble
MGSDKIHHHHHHMMDMTTRPTLQHFLSDTKHGPYVSLYMSWPENTSVEALRLRFKNMVKHTKSVMTETYPETDFSAYAAELEPYEQDPTFWQTCETNGFGMLTNGAQTYVTPMYEAVDEVAMVTDMPQILPLMLDEATATDFDILALNADSIQMYHNHGHQVRPISLPDDAPQTLKGTLGTEIRGGETNSVSQGGGRVTHHGHNEKSAEKASDQRRFYQAVDQYVLANHSNPHKMPLVLMGLAENVAVFREISKNHHLLPKLAVVKSPANLDFVELDDLLTPVRETLRDRRRQNFAEIIENARGNDSYTDHLEEVVQAAVAGRIAILFVQAGARIHARLEGTQIERDSINAQHANLLNDLADIVLSHGGQVELLTEAYLPVEVGAMVRYA	not soluble
RPAIRKRLLKPKVLDSSPRALVGHRAEVLEDVGATSGQVRLDGSIWSARSMDPTHTFAEGEIVSVIDIQGTTAIVWKEA	soluble
MHIEFRHLRTIKAIHDCGGLARAADQLNITQSALSHQIKGLEDQAGVELFVRRSKPMKLSAAGMRLLRLAEQILPQVEAMQAEFSSLRDGRSGRMHIAIECHACFEWLFPVLEAFRKNWPDVDVDIRPGLAFDALPALQKEEVDLVVSSDPEEIAGVEFVELFDYNAVFVAASTHPLAAKPWVEAEDFRGETLITYPVERTRLDVFSQLLIPARVEPAQVRQVELTAVILLLVASNRGVSVLPDWVVREVKYSSDYVTRPLTETGITRRLYAAVRSEDLEKPFVQELVTLARSEARKLQSR	not soluble
MAHHHHHHMSSSDGQGMRAVILVGGFGTRLRPLTLTTPKPLVPFCNKPMIIHQIEALKAVGVTEVILAVAYRPEAMKEQMDEWSRKLGVLFVFSVEEEPLGTAGPLALARDILMQDDKPFFVLNSDVTCPFPMQELLDFHKAHGGEGTIMVSQVTQWEKYGVVVYSPQNYQIERFVEKPSSFLGDRINAGIYIFNKSILDRIPPCRTSIEKEIFPSMAAEGQLYAFNLEGFWMDIGQPKDYILGMTKYIPFLVHSNRETEKLHTEATKHQRGGRFTVIGASLIDPSAKIGDGAVIGPYASIGANCVIGESCRIDNAAILENSKVGKGSMVSRSIVGWNNRIGSWCHIKDISVLGDDVEVEDGVVLIGTKVLPNKDVGEHHFEPGIIM	soluble
MGSDKIHHHHHHMRIAIIEDEPLAAEKLAGYIQRQWPEAKIIATLSSVDAVIEFFNQPQNLDLLFSDIELSDGQVFSALEQIDVPCPVIFTTSYNDYWMNAFQNQGIEYLLKPFSFKRFSQAVANYQALFEQRSKIETTSFKQRFIIKQQGASEMLNVAEIHCFRAANGTILAGDKQGQYHILSDNNLSQLEAQLDPKVFFRINRADIININSLIKFETYTKETLALYIKGYSEALVTSKTRTANFRKWLEA	not soluble
MKMKEFLDLLNESRLTVTLTGAGISTPSGIPDFRGPNGIYKKYSQNVFDIDFFYSHPEEFYRFAKEGIFPMLQAKPNLAHVLLAKLEEKGLIEAVITQNIDRLHQRAGSKKVIELHGNVEEYYCVRCEKKYTVEDVIKKLESSDVPLCDDCNSLIRPNIVFFGENLPQDALREAIGLSSRASLMIVLGSSLVVYPAAELPLITVRSGGKLVIVNLGETPFDDIATLKYNMDVVEFARRVMEEGGIS	soluble
MGLIKAATSSVGGGLADQWLEVIEPDNMGDTTVMTKGVFVRKDDKRGSNRKGTDDVLTDGSVVHVYPNMMMLLVDGGKIIDYTAEEGYYTVKNDSAPSMFNGSLKDAIAETFSRFKFGGVTPQKQQVFYINLQEIKGIKFGTPAPLNYFDNFYNAELFLRAHGNYSIKITDPLLFYTNAIPKNQTQVDINDINEQYLAEFITALQAAINQMSADGQRISYVPSKSVELSKYMQTALDEDWRTNRGMEIVSVAVASISYTDDSTKLINMRNEGAMLSDPGVREGYVQGSLARGMEAAGKNEGGAMSGFMGVGMGMNANGNYFAQASQTNQQQMQEKQNQQNAQGATDTWTCPQCGTENTGKFCSNCGTPKPTNEKPKLEMKCSECSEIVDLSNGIPKFCPHCGKPFQGVPL	not soluble
MSLSTHYHAHKPNVPIIMEDVFGWVREGNAFQVRVWLDDHEHDLNVGDDHAFSLLHWAAKGGHVAIAEMLLSRGARVNSTNMGDDTSLHLAAAHGHRQIVVKLLSRKADVNATNEHGMTPLHYACFWGYEQIAEDLISCGAAVNVCNKKGMTPLDVCQPMCKNTILEIAQEHGQSPNDRVPFKDTTWKGTKSRTRDATLSRYTGVDVSSLNLITKIAESHSGELWRGKWQGNDIVARILNVQEVTARISRDFQTEFPALRIFAHPNICAVLAAANQPPNLVIISQYMPFGSLYNVLHEQSSVVIDHGQAVRFALDIARGMSYLHSLDPMLLRFYLSSKHVVVDEELTAKLSMADTKFSFQEVGKAYSPAWMSPEALSRAPEDLNIRAADMWSFAILLWELNTREVPFSDLPPMECGMKIALEGLRVHIPPGIARNMNRLMNICMNEDPGRRPNFDQIIPILERMIL	not soluble
MGSDKIHHHHHHMTQPFKDAISICKTILRNGYDAYVVNMRLQSELMAEDKRMEIDLACECDFDEIARLFPNATRSDEEGVLAMLEEGGVAHRFYLTDTEESSYPDRTLMRITPHMVARLQALGKAHSSLTLPYGAAAPHDSDDFESFDKGIIRLRGLPDETLRRNYLLAVRAIRYAANLDMEIDPVTWIAIVRSAGRVLDYVPVSDIVAEWQMVEAETMWKFVRLLFDAQLLHGLLPEVAALARVRQSRNDSGDTETVLDHTIECMRHYPEEGFHHDWYGTLAMLFHDVGKLFTADFHDGQWTFYQHHRVGAKVTRRLLHRLHLPAQEVDLICHLVRHHMRFHFMLTDKGIRRFAALDEYPRLMEMARADIKARDGSYTYFNHNQKYLERAATPEQMLEPLLNGNEIMQHTGLHPGPQVGLIRDALLNAQVTGAVADVNDAVAFIKEYKRQYFS	not soluble
MAGSVGEETEPEWIKRVKLEGAVPCLKPDDNCKNGWTTPSPDTFMVRGPKYFSDKVKIPAGDFLLKPLGFDWIKGPKKLSEILSYPSSRIRKVIDEEFQKDGTKPFVWAFNLQLPHKDNYSAVAYFVTTEPILEGSLMDRFLKGDDGFKKSRLKLIANIVKGPWIVRKAVGEQAICVIGRALSCKYVSGENFVEIDVDIGSSMVASAIVHLAFGYVTTLTVDLAFLIESQTEAELPEKLLGAVRFSELQTESATSIELSSSTSNDQWDQTTSERSSWWKSIGNGFSNLLNQDTANMNNTSHGDIQKDEHVQKQ	soluble
MGSDKIHHHHHHMAATSDYDVIVVGGGHNGLTCAGYLARAGKRVLVLERRPIVGGAVCTEEVIPGYKIDVGSSAHIMIHLTPIVRDLELERHGLEYIDMDPYAFYPLPDGSGAIYFYRDVERTCQSIATVSPRDAEAYRRFLDFWTPLNEAVFDVFLNPPSVTRLFGKVASSIPRLPKAEQKVLEVTRRLFTSYAQLIEETFESEAMRAAMTWLAAQSGPPPDEIGAGDFFGWHAMLHYSGAKHPRGGSGMLTQAMARSLKAMGGEVILDAPVRRILVQNGRVQAWKRQTVSAIRPRLLFPTLTC	not soluble
MKIGIVIPAHNEEQHLSACLQSIQQAIQHTGHEQVEILVVLDSCTDQSRSVVESHQVNWIECNFACVGKARDLGIRQLIDQGVIWVACTDADTIVDSDWILCQMLHQPTDAICGVVTLDDLSHLSVQQQQKYLAHYQDSMDHQHIHGANLSFSAEAYIQAGGFEPIPCHEDVSLIEKFIKQCCKVTRSNLEHHHHHH	not soluble
MGSDKIHHHHHHMPNPTRAFLLGPLLKGVSRSFYLTLRVLPAGMRDPIGLAYLLARAADTIADTSLIAPQRRLTLLLSLREQVNGATDDAALFQRMAAEVAGQQVQSDEKVLLESLGPALDVLSQLNEFDRKAVREIVSTLTEGMEFDLRTFPDERSGQIAALREYDELDRYTYLVAGCVGEFWTTMTYAHMPGTLKERADVMARRGVRFGKALQMTNVLRDCGKDLRIGRCYLPQTMLDRYGLSPQDLLRPDNSVRARPLMIELLRKTVDHFREALDYTLAIPASAVRLRLASLWPILIGLETLILLADNDAWLDPQKVSKVRRNKVYQIIASSLLLVPSNGLVRHAVERRIRQIEARF	not soluble
MGNRLSKIATRTGDDGTTGLGDGSRVRKDDARIAAIGDVDELNSQIGVLLAEPLPDDVRAALSAIQHDLFDLGGELCIPGHAAITDAHLARLDGWLAHYNGQLPPLEEFILPGGARGAALAHVCRTVCRRAERSIVALGASEPLNAAPRRYVNRLSDLLFVLARVLNRAAGGADVLWDRTRAH	soluble
MNLRGILPFAHDTLRKVVRSGDYVVDATCGNGHDTLLLAELVGINGHVLGFDIQQLAIDATNTRLENAGVSSQVELVCASHARIPEYTSKPVRAAIFNLGYLPGGDKEITTTADSTLESIGHLMELLEVGGVIILVIYHGHPAGKQEKDAVMTFCEAIPQQDFHVLSYNFINQKNDAPFVIIIEKRKPRQSLEHHHHHH	soluble
SAVKAQVLYDFTAEPGNNELTVHEGETLTITNQNVGGGWVEAQNSRGNVGLVPVDYVEVNSASAQAPATQYIDARNQGNNNSTANTQGVNGNEAWTATTWSNSYPADNWNYTEQEPAGNNGSVYSFDEEWDDDSDDGKSTGGYGGSQAEDGGTMQRSGAHSTMKLSLNKFPGFSKTPNPEVYLLTKHITKGNDRLSVYPGEVGPVWLYPQTQLDCVVADPKKGSKMYGLKSYIEYQITPNTTNRPVNHRYKHFDWLYERLVEKFACALPVPGLPDKQVTGRFEEEFIKMRMERLQGWMSRMCRHPVISNSEVFQLFLNYRDEKEWKLGKRKAEKDETVGVKIFSTIDPELPELDPAQVEQKYEVYNQFTRSMDNSVKELLAVGNLHWKRCTGPLQKEYRQIGKAFQNMSSVFNTSGYPRESTLTEALTATGKTYEEIAEVIAAQPRKDLHFLLETNNEYKGLLGCFPDTIGVHKAAIDKVKEADHLVMTNKISQQDKHTMEKNLSTMSYALQAEMNHFHSNRIYDYNRLMQFYLEEQVKFYETIAEKLKKALGQYTTI	soluble
